Where a chain is given by its changes, count along the chain named.

Test in all cases: SPR; KD relative to WT C2;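 further: biacore SPR at 37 °C, anti-C2 mAbs captured on an anti-human IgG chip, alanine or serine C2 surface mutants tested, KD from 1:1 fit compared with wild-type C2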
One assay has as its target T1, human C2 M452A (human, UniProt P06681 21-752).
T1 sequence: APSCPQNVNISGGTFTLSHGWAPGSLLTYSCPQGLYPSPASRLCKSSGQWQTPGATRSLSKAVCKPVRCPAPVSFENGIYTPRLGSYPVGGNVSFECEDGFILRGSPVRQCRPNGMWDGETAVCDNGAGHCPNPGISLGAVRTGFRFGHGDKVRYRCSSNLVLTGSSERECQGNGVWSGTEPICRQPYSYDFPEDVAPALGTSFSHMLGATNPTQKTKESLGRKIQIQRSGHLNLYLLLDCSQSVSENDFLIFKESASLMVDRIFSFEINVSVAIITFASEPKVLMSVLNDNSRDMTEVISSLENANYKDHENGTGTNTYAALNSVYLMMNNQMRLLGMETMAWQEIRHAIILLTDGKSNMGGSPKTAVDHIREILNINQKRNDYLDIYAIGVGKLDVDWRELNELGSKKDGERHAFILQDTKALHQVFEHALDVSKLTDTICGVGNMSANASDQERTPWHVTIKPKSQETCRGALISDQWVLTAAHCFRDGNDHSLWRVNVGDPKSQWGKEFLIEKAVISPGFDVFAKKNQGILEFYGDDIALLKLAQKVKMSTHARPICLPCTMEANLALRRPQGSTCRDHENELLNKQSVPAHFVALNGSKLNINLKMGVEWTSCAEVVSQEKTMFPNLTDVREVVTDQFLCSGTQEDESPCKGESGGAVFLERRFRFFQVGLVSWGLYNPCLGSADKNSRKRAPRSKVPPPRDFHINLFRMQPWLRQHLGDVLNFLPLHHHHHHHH

The target of the next assay is T2, human C2 I272A (human, UniProt P06681 21-752).
T2 sequence: T1 sequence with I252A, A432M

Another assay addresses T3, human C2 D454A (human, UniProt P06681 21-752).
T3 sequence: T1 sequence with A432M, D434A

The target in a further assay is T4, human complement C2 (human, UniProt P06681 21-752).
T4 construct: Recombinant full-length human C2 with C-terminal 8x His tag, purified from Expi293F supernatant; also called human C2; huC2
T4 sequence: T1 sequence with A432M

B1: RF16-214 (antibody, V domains shown)
VH: EVQLLESGGGLVQPGGSLRLSCAASGFTFSWYQMMWVRQAPGKGLEWVSRIYPSGGGTAYADSVKGRFTISRDNSKNTLYLQMNSLRAEDTAVYYCARDAGYGDNWGQGTLVTVSS
VL: QSALTQPPSVSVSPGQTASITCSGDKLGEKYASWYQQKAGQSPVMVIYQDRKRPSGIPERFSGSNSGNTATLTISGTQAMDEADYYCQAWDTRAVVFGGGTKLTVLG
With B1, the Fold diff amounted to 1 fold in the assay with human C2 M452A, 15 fold with human C2 I272A, 4 fold with human C2 D454A and 1 fold in the assay with human complement C2.
